According to patent publication US8513380B2, “Peptides for binding fibrinogen and fibrin” (Georgia Tech Research Corporation, priority 2009, dated 2013):
Where no end group is shown, it is not given here.

How the values were obtained:
fibrinogen [1] = molecular target: T1, fibrinogen (Homo sapiens, UniProt P02675+P02679); test: ELISA specificity assay: soluble Gxxx tetrapeptides competing with immobilized GPRP-FnIII9-10-C; type: binding; details: tetrapeptide in 10^2- to 10^4-fold molar excess; one-hour pre-incubation
T1 sequence (P02679 27-437 isoform P02679-2 limits assumed): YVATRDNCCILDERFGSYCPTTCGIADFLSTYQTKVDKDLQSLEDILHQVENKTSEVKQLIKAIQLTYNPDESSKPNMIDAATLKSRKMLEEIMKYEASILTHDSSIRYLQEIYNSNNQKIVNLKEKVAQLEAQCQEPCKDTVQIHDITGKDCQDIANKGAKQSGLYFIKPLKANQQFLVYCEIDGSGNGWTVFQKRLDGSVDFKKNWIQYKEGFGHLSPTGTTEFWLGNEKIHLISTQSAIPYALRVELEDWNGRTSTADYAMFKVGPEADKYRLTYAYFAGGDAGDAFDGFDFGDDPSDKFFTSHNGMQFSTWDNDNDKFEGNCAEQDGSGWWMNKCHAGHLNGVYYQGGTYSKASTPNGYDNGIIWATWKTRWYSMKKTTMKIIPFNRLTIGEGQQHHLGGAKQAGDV
T1 sequence (P02675 31-491): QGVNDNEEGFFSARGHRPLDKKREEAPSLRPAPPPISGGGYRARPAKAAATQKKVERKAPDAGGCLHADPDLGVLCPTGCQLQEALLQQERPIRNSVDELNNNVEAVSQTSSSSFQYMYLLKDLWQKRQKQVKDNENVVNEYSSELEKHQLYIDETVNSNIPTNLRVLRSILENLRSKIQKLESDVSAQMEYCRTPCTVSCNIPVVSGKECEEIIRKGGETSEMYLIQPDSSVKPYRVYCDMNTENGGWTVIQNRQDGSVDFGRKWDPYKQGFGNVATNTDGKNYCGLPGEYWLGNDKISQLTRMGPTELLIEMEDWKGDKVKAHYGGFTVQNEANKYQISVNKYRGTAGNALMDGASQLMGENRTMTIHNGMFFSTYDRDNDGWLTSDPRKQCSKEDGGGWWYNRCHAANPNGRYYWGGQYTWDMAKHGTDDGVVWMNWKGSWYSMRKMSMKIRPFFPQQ
T1 sequence (P02671 20-629 partner limits assumed): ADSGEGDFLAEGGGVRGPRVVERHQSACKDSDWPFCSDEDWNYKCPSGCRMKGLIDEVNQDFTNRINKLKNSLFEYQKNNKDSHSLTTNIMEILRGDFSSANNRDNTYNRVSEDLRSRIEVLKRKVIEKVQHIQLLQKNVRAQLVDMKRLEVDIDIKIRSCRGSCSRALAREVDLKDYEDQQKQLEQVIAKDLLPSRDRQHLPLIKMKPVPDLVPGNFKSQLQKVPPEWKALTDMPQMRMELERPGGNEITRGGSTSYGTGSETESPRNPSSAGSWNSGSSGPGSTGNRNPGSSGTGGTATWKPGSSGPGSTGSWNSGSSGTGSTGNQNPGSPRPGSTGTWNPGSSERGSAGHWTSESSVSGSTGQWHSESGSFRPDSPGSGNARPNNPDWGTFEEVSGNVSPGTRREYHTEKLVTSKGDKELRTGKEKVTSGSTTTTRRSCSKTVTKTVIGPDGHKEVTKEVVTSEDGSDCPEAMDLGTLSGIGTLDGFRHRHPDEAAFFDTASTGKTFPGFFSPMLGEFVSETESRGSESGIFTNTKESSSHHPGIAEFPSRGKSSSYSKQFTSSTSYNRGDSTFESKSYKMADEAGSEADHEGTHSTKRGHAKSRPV
Procedure: A modified ELISA technique was used to establish the affinity of fibrinogen for the various Gxxx-FnIII9-10-C (SEQ ID NO:20) proteins covalently immobilized on maleimide-activated plates via their C-terminal cysteines. Sulfhydryl-containing proteins/peptides were added to pre-blocked maleimide-activated 96-well plates (Pierce, Thermo Scientific, Rockford, Ill.) at 10 μg/mL in conjugation buffer (CB) comprising 150 mM NaCl, 100 mM phosphate, 10 mM EDTA, pH 7.2, with attachment occurring via maleimide-sulfhydryl (thioether) linkages. TCEP (1 mM) was added to maintain sulfhydryl groups in the reduced form. Following, unreacted maleimide groups were quenched with 20 μg/mL cysteine in CB. Human fibrinogen (25 μg/mL) was incubated with the substrates and unbound protein removed by washing. Bound fibrinogen was detected using HRP-conjugated goat anti-fibrinogen antibody (MP Biomedicals #55239) and 1-Step™ Ultra TMB-ELISA (Pierce). The TMB reaction was quenched with 1 M H2SO4 before measuring the Abs450 nm using the SPECTRAMAX® M2 (Molecular Devices, Sunnyvale, Calif.). All intervening wash steps were conducted using washing buffer (WB) comprising 150 mM NaCl, 100 mM phosphate, 0.05% Tween-20, pH 7.2; all binding steps were conducted using binding buffer (BB) comprising PBS+1% BSA. For basic affinity assays, the concentration of the fusion proteins was varied. For specificity assays, varying concentrations of Gxxx (SEQ ID NO:20) tetrapeptides (Genscript, Piscataway, N.J.) were added to the fibrinogen solution during incubation with the covalently immobilized proteins.
The tetrapeptides GPRV (SEQ ID NO:2) and GHRP (SEQ ID NO:3) are also known to bind fibrinogen via knob:pocket interactions, albeit with reduced affinities (Laudano A P, et al. Biochemistry 1980, 19(5):1013-1019).

fibrin = fibrin (Homo sapiens, UniProt P02675+P02679); details: cited from earlier work
fibrinogen [2] = molecular target: T2, fibrinogen (Homo sapiens, UniProt P02675+P02679); test: Turbidity and percent clottability with PEGylated knob peptides; type: biochemical; details: 1:1 molar ratio; for percentage of clottable protein: no-peptide ˜95%
T2 sequence (P02679 27-433 limits assumed): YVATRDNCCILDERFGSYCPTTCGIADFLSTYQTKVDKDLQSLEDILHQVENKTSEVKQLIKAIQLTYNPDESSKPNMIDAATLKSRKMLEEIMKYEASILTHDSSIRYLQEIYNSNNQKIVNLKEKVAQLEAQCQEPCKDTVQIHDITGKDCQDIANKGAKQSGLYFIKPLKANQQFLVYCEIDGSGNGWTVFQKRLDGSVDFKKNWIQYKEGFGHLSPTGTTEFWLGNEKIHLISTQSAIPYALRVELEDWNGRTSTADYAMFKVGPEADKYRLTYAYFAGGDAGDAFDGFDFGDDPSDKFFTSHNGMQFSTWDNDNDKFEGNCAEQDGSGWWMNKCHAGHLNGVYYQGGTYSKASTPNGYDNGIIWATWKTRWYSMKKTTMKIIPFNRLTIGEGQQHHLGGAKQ
T2 sequence (P02675 31-491): T1 sequence (P02675 31-491)
T2 sequence (P02671 20-629 partner limits assumed): T1 sequence (P02671 20-629 partner limits assumed)
Procedure: Polymerization rate (turbidity curves), percent clottable protein, fiber structure (SEM), and viscoelastic properties of fibrin polymerized in the presence or absence of PEGylated-GPRPFPAC (5 kDa linear PEG chain, SED ID NO:53) at a 1:1 molar ratio were evaluated.
The turbidity curves upon initiating thrombin-activated polymerization and the amount of soluble protein remaining in the clot liquor after polymerization (percent clottable protein) were evaluated. All assays were performed with 1 mg/ml fibrinogen, 1 U/ml thrombin, 1 U/mL factor XIIIa, and 5 mM CaCl2; all PEG conjugates were tested at a 1:1 molar ratio.

percentage of clottable protein (fibrinogen [2])	Substance	competition with immobilized GPRP-FnIII9-10-C for binding to fibrinogen (fibrinogen [1])	excess necessary to completely inhibit fibrin assembly (fibrin)	maximum absorbance turbidity value (fibrinogen [2]; 1 mg/ml fibrinogen, 1 U/ml thrombin, 1 U/mL factor XIIIa)
	GPRP	dose-dependent inhibition of fibrinogen binding	≥ 100 -fold excess	
92%	GPRPFPAC-PEG: GPRPFPAC conjugated to 5 kDa linear PEG chain (also: conjugated to 5 kDa linear PEG, site not given here; listed as Homo sapiens)			lower maximum absorbance turbidity value
did not change	GPSPFPAC-PEG: control peptide conjugate, GPSPFPAC (SEQ ID NO:18) with PEG (also: PEG conjugate, site not given here; listed as Homo sapiens) [reference compound]			
